# Results: the supplement of paper PMC11316812
# ± gives the standard deviation of the averaged measurements.
# Assays:
# hTERT-HMEC = assay: percentage of EdU-negative (G0-arrested) nuclei per well, 72 h; higher = more G0 arrest; details: reference: sequence is the full UniProt precursor, the tested protein was the secreted form or ectodomain
# MCF7 = assay: as above; details: reference: sequence is the full UniProt precursor, the tested protein was the secreted form or ectodomain
# [1] = protein concentration 0.01392 µM
# [2] = protein concentration 0.1392 µM
# [3] = protein concentration 0.0225 µM
# [4] = protein concentration 0.0155 µM
# [5] = protein concentration 0.0187725 µM
# [6] = protein concentration 0.187725 µM
# [7] = protein concentration 0.02075 µM
# [8] = protein concentration 0.2075 µM
# 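Also: secreted proteins added to cultured cells, EdU pulse at the end, nuclei found by Hoechst imaging, EdU status from nuclear versus surrounding ring intensity ratio, PBS as neutral control.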
substance,measurement,setting,value
MRLKNLTFIIILIISGELYAEEKPCGFPHVENGRIAQYYYTFKSFYFPMSIDKKLSFFCLAGYTTESGRQEEQTTCTTEGWSPEPRCFKKCTKPDLSNGYISDVKLLYKIQENMRYGCASGYKTTGGKDEEVVQCLSDGWSSQPTCRKEHETCLAPELYNGNYSTTQKTFKVKDKVQYECATGYYTAGGKKTEEVECLTYGWSLTPKCTKLKCSSLRLIENGYFHPVKQTYEEGDVVQFFCHENYYLSGSDLIQCYNFGWYPESPVCEGRRNRCPPPPLPINSKIQTHSTTYRHGEIVHIECELNFEIHGSAEIRCEDGKWTEPPKCIEGQEKVACEEPPFIENGAANLHSKIYYNGDKVTYACKSGYLLHGSNEITCNRGKWTLPPECVENNENCKHPPVVMNGAVADGILASYATGSSVEYRCNEYYLLRGSKISRCEQGKWSSPPVCLEPCTVNVDYMNRNNIEMKWKYEGKVLHGDLIDFVCKQGYDLSPLTPLSELSVQCNRGEVKYPLCTRKESKGMCTSPPLIKHGVIISSTVDTYENGSSVEYRCFDHHFLEGSREAYCLDGMWTTPPLCLEPCTLSFTEMEKNNLLLKWDFDNRPHILHGEYIEFICRGDTYPAELYITGSILRMQCDRGQLKYPRCIPRQSTLSYQEPLRT,percentage of EdU-negative,hTERT-HMEC; [1],5.59 ± 0.28%
same,percentage of EdU-negative,hTERT-HMEC; [2],7.25 ± 1.1%
same,percentage of EdU-negative,MCF7; [1],26.7 ± 0.98%
same,percentage of EdU-negative,MCF7; [2],25.4 ± 0.69%
MAKMNLSSYILILTFSLFSQGILLSASKSIRNLDDDMVFNTFRLGKGFQKEDTAEKSVIAPSLEQYKNDESSFMNEEENKVSKNTGSKHNFLNHGLPLNLAIKPYLALKGSVAFPAENGVQNTESTQEKREIGDEENSAKFPIGRRDFDMLRCMLGRVYRPCWQV,percentage of EdU-negative,hTERT-HMEC; [3],5.49 ± 0.6%
same,percentage of EdU-negative,hTERT-HMEC; protein concentration 0.225 µM,5.82 ± 0.072%
same,percentage of EdU-negative,MCF7; [3],26 ± 2.4%
same,percentage of EdU-negative,MCF7; protein concentration 0.225 µM,26 ± 1.2%
MQWTSLLLLAGLFSLSQAQYEDDPHWWFHYLRSQQSTYYDPYDPYPYETYEPYPYGVDEGPAYTYGSPSPPDPRDCPQECDCPPNFPTAMYCDNRNLKYLPFVPSRMKYVYFQNNQITSIQEGVFDNATGLLWIALHGNQITSDKVGRKVFSKLRHLERLYLDHNNLTRMPGPLPRSLRELHLDHNQISRVPNNALEGLENLTALYLQHNEIQEVGSSMRGLRSLILLDLSYNHLRKVPDGLPSALEQLYMEHNNVYTVPDSYFRGAPKLLYVRLSHNSLTNNGLASNTFNSSSLLELDLSYNQLQKIPPVNTNLENLYLQGNRINEFSISSFCTVVDVVNFSKLQVLRLDGNEIKRSAMPADAPLCLRLASLIEI,percentage of EdU-negative,hTERT-HMEC; [4],4.701 ± 0.032%
same,percentage of EdU-negative,hTERT-HMEC; protein concentration 0.155 µM,5.63 ± 0.63%
same,percentage of EdU-negative,MCF7; [4],25.8 ± 0.27%
same,percentage of EdU-negative,MCF7; protein concentration 0.155 µM,30.9 ± 1.2%
MDGAMGPRGLLLCMYLVSLLILQAMPALGSATGRSKSSEKRQAVDTAVDGVFIRSLKVNCKVTSRFAHYVVTSQVVNTANEAREVAFDLEIPKTAFISDFAVTADGNAFIGDIKDKVTAWKQYRKAAISGENAGLVRASGRTMEQFTIHLTVNPQSKVTFQLTYEEVLKRNHMQYEIVIKVKPKQLVHHFEIDVDIFEPQGISKLDAQASFLPKELAAQTIKKSFSGKKGHVLFRPTVSQQQSCPTCSTSLLNGHFKVTYDVSRDKICDLLVANNHFAHFFAPQNLTNMNKNVVFVIDISGSMRGQKVKQTKEALLKILGDMQPGDYFDLVLFGTRVQSWKGSLVQASEANLQAAQDFVRGFSLDEATNLNGGLLRGIEILNQVQESLPELSNHASILIMLTDGDPTEGVTDRSQILKNVRNAIRGRFPLYNLGFGHNVDFNFLEVMSMENNGRAQRIYEDHDATQQLQGFYSQVAKPLLVDVDLQYPQDAVLALTQNHHKQYYEGSEIVVAGRIADNKQSSFKADVQAHGEGQEFSITCLVDEEEMKKLLRERGHMLENHVERLWAYLTIQELLAKRMKVDREERANLSSQALQMSLDYGFVTPLTSMSIRGMADQDGLKPTIDKPSEDSPPLEMLGPRRTFVLSALQPSPTHSSSNTQRLPDRVTGVDTDPHFIIHVPQKEDTLCFNINEEPGVILSLVQDPNTGFSVNGQLIGNKARSPGQHDGTYFGRLGIANPATDFQLEVTPQNITLNPGFGGPVFSWRDQAVLRQDGVVVTINKKRNLVVSVDDGGTFEVVLHRVWKGSSVHQDFLGFYVLDSHRMSARTHGLLGQFFHPIGFEVSDIHPGSDPTKPDATMVVRNRRLTVTRGLQKDYSKDPWHGAEVSCWFIHNNGAGLIDGAYTDYIVPDIF,percentage of EdU-negative,hTERT-HMEC; [3],5.89 ± 0.64%
same,percentage of EdU-negative,hTERT-HMEC; protein concentration 0.225 µM,6.12 ± 0.16%
same,percentage of EdU-negative,MCF7; [3],26.48 ± 0.18%
same,percentage of EdU-negative,MCF7; protein concentration 0.225 µM,26 ± 0.27%
P08572,percentage of EdU-negative,hTERT-HMEC; protein concentration 0.008 µM,4.54 ± 0.088%
same,percentage of EdU-negative,hTERT-HMEC; protein concentration 0.08 µM,5.63 ± 0.46%
same,percentage of EdU-negative,MCF7; protein concentration 0.008 µM,24.1 ± 2.1%
same,percentage of EdU-negative,MCF7; protein concentration 0.08 µM,25.4 ± 0.67%
MKEYVLLLFLALCSAKPFFSPSHIALKNMMLKDMEDTDDDDDDDDDDDDDDEDNSLFPTREPRSHFFPFDLFPMCPFGCQCYSRVVHCSDLGLTSVPTNIPFDTRMLDLQNNKIKEIKENDFKGLTSLYGLILNNNKLTKIHPKAFLTTKKLRRLYLSHNQLSEIPLNLPKSLAELRIHENKVKKIQKDTFKGMNALHVLEMSANPLDNNGIEPGAFEGVTVFHIRIAEAKLTSVPKGLPPTLLELHLDYNKISTVELEDFKRYKELQRLGLGNNKITDIENGSLANIPRVREIHLENNKLKKIPSGLPELKYLQIIFLHSNSIARVGVNDFCPTVPKMKKSLYSAISLFNNPVKYWEMQPATFRCVLSRMSVQLGNFGM [Q9BXN1],percentage of EdU-negative,hTERT-HMEC; [5],4.7 ± 0.51%
same,percentage of EdU-negative,hTERT-HMEC; [6],4.97 ± 0.19%
same,percentage of EdU-negative,MCF7; [5],26.18 ± 0.19%
same,percentage of EdU-negative,MCF7; [6],26.9 ± 3.7%
MAFVCLAIGCLYTFLISTTFGCTSSSDTEIKVNPPQDFEIVDPGYLGYLYLQWQPPLSLDHFKECTVEYELKYRNIGSETWKTIITKNLHYKDGFDLNKGIEAKIHTLLPWQCTNGSEVQSSWAETTYWISPQGIPETKVQDMDCVYYNWQYLLCSWKPGIGVLLDTNYNLFYWYEGLDHALQCVDYIKADGQNIGCRFPYLEASDYKDFYICVNGSSENKPIRSSYFTFQLQNIVKPLPPVYLTFTRESSCEIKLKWSIPLGPIPARCFDYEIEIREDDTTLVTATVENETYTLKTTNETRQLCFVVRSKVNIYCSDDGIWSEWSDKQCWEGEDLSKKTLLRFWLPFGFILILVIFVTGLLLRKPNTYPKMIPEFFCDT,percentage of EdU-negative,hTERT-HMEC; [7],4.91 ± 0.34%
same,percentage of EdU-negative,hTERT-HMEC; [8],9.86 ± 0.6%
same,percentage of EdU-negative,MCF7; [7],26.8 ± 0.36%
same,percentage of EdU-negative,MCF7; [8],29.3 ± 0.53%
